{"source": "patent US20110263014", "key": {"[1]": {"target": "T1, mNanog (D67G) (UniProt Q80Z64)", "T1 sequence": "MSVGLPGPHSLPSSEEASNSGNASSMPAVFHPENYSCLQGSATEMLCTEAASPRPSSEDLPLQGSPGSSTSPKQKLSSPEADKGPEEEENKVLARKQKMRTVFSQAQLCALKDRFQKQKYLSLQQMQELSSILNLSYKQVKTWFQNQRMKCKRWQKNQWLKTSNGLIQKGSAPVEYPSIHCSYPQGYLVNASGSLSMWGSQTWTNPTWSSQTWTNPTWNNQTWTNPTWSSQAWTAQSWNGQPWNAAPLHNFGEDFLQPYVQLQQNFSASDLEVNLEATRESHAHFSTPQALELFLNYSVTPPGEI"}, "[2]": {"target": "T2, mouse Nanog (mNanog) (UniProt Q80Z64)", "T2 sequence": "T1 sequence with G67D"}}, "note": "Positions count from the first letter of the chain named.", "data": [{"substance": "recombinant caspase-9", "values": [{"measurement": "cleavage of immunoprecipitated mNanog (D67G) by recombinant caspase", "setting": "[1]", "result": "Mutation D67G in mNanog greatly diminished cleavage of mNanog by caspase-9"}, {"measurement": "cleavage of immunoprecipitated mNanog by recombinant caspase", "setting": "[2]", "result": "Only caspase-9 effectively cleaved mNanog into a 27 kDa fragment"}, {"measurement": "in vitro caspase cleavage assay", "setting": "[2]", "result": "caspase-9 can effectively cleave in vitro-translated mNanog"}]}]}
